Experimental data taken from patent US7407939B2, “Protein kinase inhibitors comprising ATP mimetics conjugated to peptides or peptidomimetics” (CureGenics Ltd., priority 2001, dated 2008).
Where two headings read alike, the source gives them in different places. *1 amine or outer side, *2 acyl side, *3 side chain or, on linkers, in order; H or OH if unused. Where a SMILES comes first, the peptide text is derived from it. Where no end group is shown, it is not given here. Side-chain parts run from the residue outwards. [ ]: non-standard residue; d: D form. The star is where a group is joined. X1 = 5‑aminoethylsulfonamide isoquinoline, O=S(=O)(NCCN*)c1cccc2cnccc12; Isoquinoline5sulfonyl = O=S(=O)(c1cccc2cnccc12)*; X3 = O=C(OC[C@H](Cc1ccccc1)N[*:1])[*:2]; Ethylenediamine = C(CN[*:2])N[*:1]; hLeu = CC(C)CC[C@H](N)C(=O)O; Nle = CCCC[C@H](N)C(=O)O; Orn = NCCC[C@H](N)C(=O)O; Dab = NCC[C@H](N)C(=O)O; Nva = CCC[C@H](N)C(=O)O; Abu = CC[C@H](N)C(=O)O; Dap = NC[C@H](N)C(=O)O; βAla = NCCC(=O)O

Biological target: T1, PKB (Homo sapiens, UniProt P31749)
T1 construct: His; HA; made in house
Assay: PKB in vitro kinase activity assay (soluble His-HA-PKB / SPA bead screening)
Type: biochemical
Details: for PKB-kinase (spa) Assay 1, % inhibition of kinase activity / PKB-kinase (spa) Assay 2, % inhibition of kinase activity: 1 μM compound concentration

[1] = Table 3, linear 7-mer peptides, read-out: Activity PKB
[2] = chimeric PTR compounds (peptide conjugated to isoquinoline small molecule), read-out: PKB IC50

T1 sequence (P31749 whole entry, species assumed): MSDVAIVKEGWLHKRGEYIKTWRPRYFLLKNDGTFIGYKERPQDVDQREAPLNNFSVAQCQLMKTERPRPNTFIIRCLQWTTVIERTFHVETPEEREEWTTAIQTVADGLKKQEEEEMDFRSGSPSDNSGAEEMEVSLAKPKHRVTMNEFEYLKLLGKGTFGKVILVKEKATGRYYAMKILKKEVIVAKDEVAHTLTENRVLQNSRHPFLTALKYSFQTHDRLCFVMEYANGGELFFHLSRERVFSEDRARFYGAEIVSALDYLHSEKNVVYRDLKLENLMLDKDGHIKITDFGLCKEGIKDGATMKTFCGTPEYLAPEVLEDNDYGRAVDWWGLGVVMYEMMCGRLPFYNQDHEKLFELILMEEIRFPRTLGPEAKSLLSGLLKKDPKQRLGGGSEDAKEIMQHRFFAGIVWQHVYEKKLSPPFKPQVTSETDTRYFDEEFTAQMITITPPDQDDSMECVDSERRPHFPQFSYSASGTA
Experimental: The enzyme activity measurement is performed as described in the assay for PKA.
Kinase reaction was carried out in final volume of 50 μl. […] The kinase reaction was started by adding 10 μl of 2 μM cold ATP and 0.25 μCi of [γ^33P]-ATP in kinase buffer. The plates were incubated at 27° C. for 1 hr. At the end of the incubation the reaction was stopped by 200 μl of PBS containing 0.1% Triton X-100, 5 mM EDTA, 1 mM ATP and 0.3 mg/ml of Streptavidin-coated SPA bead (Amersham Pharmacia Biotech). After 15 min incubation at room temperature, the reaction mixtures were filtered using Packard GF/B 96-well plates. The plates were washed twice with 2M NaCl and 1% orthophosphoric acid followed by ethanol wash and 1 h air-dry. The radioactivity was counted using microplate counter Packard Top Count

With “60020-56: Arg-Pro-Arg-Abu-Glu(Gly-5-aminoethylsulfonamide isoquinoline)-Nva-Hol (RPR[Abu]E([Gly-X1])[Nva][hLeu])” the “PKB-kinase (spa) Assay 1, % inhibition of kinase activity” value (“PKB-kinase (spa) Assay 1, % inhibition” below) was 20% and the “PKB-kinase (spa) Assay 2, % inhibition of kinase activity” value (“PKB-kinase (spa) Assay 2, % inhibition” below) was 47%.
With “60020-40: Arg-Pro-Arg-Dap-Glu(Gly-5-aminoethylsulfonamide isoquinoline)-Nva-Hol (RPR[Dap]E([Gly-X1])[Nva][hLeu])” the “PKB-kinase (spa) Assay 1, % inhibition” value was 36% and the “PKB-kinase (spa) Assay 2, % inhibition” value was 22%.
`N=C(N)NCCC[C@H](NC(=O)[C@@H]1CCCN1C(=O)[C@@H](N)CCCNC(=N)N)C(=O)N[C@@H](CCCN)C(=O)N[C@@H](CO)C(=O)N[C@@H](CO)C(=O)N[C@@H](Cc1ccccc1)C(N)=O` [AR 60003-52, Arg-Pro-Arg-Orn-Ser-Ser-Phe] (H-RPR[Orn]SSF-NH2; N-terminus and C-terminus assumed) showed an IC50 [1] of 2.5 µM.
In the case of “60020-82: Arg-Pro-Arg-Abu-Glu(bAla-5-aminoethylsulfonamide isoquinoline)-Dab-Hol (RPR[Abu]E([βAla-X1])[Dab][hLeu])”, the “PKB-kinase (spa) Assay 1, % inhibition” value is reported as −9% and the “PKB-kinase (spa) Assay 2, % inhibition” value is reported as 56%.
With “60020-73: Arg-Pro-Arg-Orn-Glu(bAla-5-aminoethylsulfonamide isoquinoline)-Dab-Phe (RPR[Orn]E([βAla-X1])[Dab]F)” the “PKB-kinase (spa) Assay 1, % inhibition” value was 16% and the “PKB-kinase (spa) Assay 2, % inhibition” value was 35%.
For “60020-17: Arg-Pro-Arg-Abu-Glu(5-aminoethylsulfonamide isoquinoline)-Dab-Phe (RPR[Abu]E(X1)[Dab]F)”, the “PKB-kinase (spa) Assay 1, % inhibition” value was 34% and the “PKB-kinase (spa) Assay 2, % inhibition” value was 38%.
For “60020-61: Arg-Pro-Arg-Nle-Glu(Gly-5-aminoethylsulfonamide isoquinoline)-Ala-Phe (RPR[Nle]E([Gly-X1])AF)”, the “PKB-kinase (spa) Assay 1, % inhibition” value was 29% and the “PKB-kinase (spa) Assay 2, % inhibition” value was 40%.
With “60020-47: Arg-Pro-Arg-Orn-Glu(Gly-5-aminoethylsulfonamide isoquinoline)-Nva-Phe (RPR[Orn]E([Gly-X1])[Nva]F)” the “PKB-kinase (spa) Assay 1, % inhibition” value was 21% and the “PKB-kinase (spa) Assay 2, % inhibition” value was 33%.
With “60020-72: Arg-Pro-Arg-Dap-Glu(bAla-5-aminoethylsulfonamide isoquinoline)-Nva-Hol (RPR[Dap]E([βAla-X1])[Nva][hLeu])” the “PKB-kinase (spa) Assay 1, % inhibition” value was 31% and the “PKB-kinase (spa) Assay 2, % inhibition” value was 52%.
With `CCCC[C@H](NC(=O)[C@H](CO)NC(=O)[C@H](CO)NC(=O)[C@H](CCCC)NC(=O)[C@H](CCCNC(=N)N)NC(=O)[C@@H]1CCCN1C(=O)[C@@H](N)CCCNC(=N)N)C(N)=O` [AR 60003-62, Arg-Pro-Arg-Nle-Ser-Ser-Nle] (H-RPR[Nle]SS[Nle]-NH2) the inhibition at 1 µM (at 1 μM, Table 3, read-out: inhibition (PKB)) was 70%.
With “60020-20: Arg-Pro-Arg-Abu-Glu(5-aminoethylsulfonamide isoquinoline)-Orn-Hol (RPR[Abu]E(X1)[Orn][hLeu])” the “PKB-kinase (spa) Assay 1, % inhibition” value was 11% and the “PKB-kinase (spa) Assay 2, % inhibition” value was 15%.
In the case of “60020-54: Arg-Pro-Arg-Abu-Glu(Gly-5-aminoethylsulfonamide isoquinoline)-Ala-Hol (RPR[Abu]E([Gly-X1])A[hLeu])”, the “PKB-kinase (spa) Assay 1, % inhibition” value is reported as 34% and the “PKB-kinase (spa) Assay 2, % inhibition” value is reported as 45%.
For `CC[C@H](NC(=O)[C@H](CO)NC(=O)[C@@H](NC(=O)[C@H](CCCNC(=N)N)NC(=O)[C@@H]1CCCN1C(=O)[C@@H](N)CCCNC(=N)N)[C@@H](C)O)C(=O)N[C@H](COC(=O)NCCNS(=O)(=O)c1cccc2cnccc12)Cc1ccccc1` [compound 6013] (H-RPRTS[Abu][X3]-{Ethylenediamine-Isoquinoline5sulfonyl}), the IC50 [2] was 4 µM.
For “60020-74: Arg-Pro-Arg-Orn-Glu(bAla-5-aminoethylsulfonamide isoquinoline)-Dab-Hol (RPR[Orn]E([βAla-X1])[Dab][hLeu])”, the “PKB-kinase (spa) Assay 1, % inhibition” value was 33% and the “PKB-kinase (spa) Assay 2, % inhibition” value was 41%.
“60020-81: Arg-Pro-Arg-Abu-Glu(bAla-5-aminoethylsulfonamide isoquinoline)-Dab-Phe (RPR[Abu]E([βAla-X1])[Dab]F)” was tested, and the “PKB-kinase (spa) Assay 1, % inhibition” value was −17% and the “PKB-kinase (spa) Assay 2, % inhibition” value was 42%.
“60020-30: Arg-Pro-Arg-Nle-Glu(5-aminoethylsulfonamide isoquinoline)-Ala-Hol (RPR[Nle]E(X1)A[hLeu])” was tested, and the “PKB-kinase (spa) Assay 1, % inhibition” value was 14% and the “PKB-kinase (spa) Assay 2, % inhibition” value was 38%.
For “60020-45: Arg-Pro-Arg-Orn-Glu(Gly-5-aminoethylsulfonamide isoquinoline)-Ala-Phe (RPR[Orn]E([Gly-X1])AF)”, the “PKB-kinase (spa) Assay 1, % inhibition” value was 29% and the “PKB-kinase (spa) Assay 2, % inhibition” value was 53%.
For “60020-86: Arg-Pro-Arg-Abu-Glu(bAla-5-aminoethylsulfonamide isoquinoline)-Ala-Hol (RPR[Abu]E([βAla-X1])A[hLeu])”, the “PKB-kinase (spa) Assay 1, % inhibition” value was −55% and the “PKB-kinase (spa) Assay 2, % inhibition” value was −5%.
With “60020-46: Arg-Pro-Arg-Orn-Glu(Gly-5-aminoethylsulfonamide isoquinoline)-Ala-Hol (RPR[Orn]E([Gly-X1])A[hLeu])” the “PKB-kinase (spa) Assay 1, % inhibition” value was 37% and the “PKB-kinase (spa) Assay 2, % inhibition” value was 57%.
In the case of “60020-53: Arg-Pro-Arg-Abu-Glu(Gly-5-aminoethylsulfonamide isoquinoline)-Ala-Phe (RPR[Abu]E([Gly-X1])AF)”, the “PKB-kinase (spa) Assay 1, % inhibition” value is reported as 20% and the “PKB-kinase (spa) Assay 2, % inhibition” value is reported as 13%.
“60020-92: Arg-Pro-Arg-Nle-Glu(bAla-5-aminoethylsulfonamide isoquinoline)-Orn-Hol (RPR[Nle]E([βAla-X1])[Orn][hLeu])” was tested, and the “PKB-kinase (spa) Assay 1, % inhibition” value was 40% and the “PKB-kinase (spa) Assay 2, % inhibition” value was 59%.
With “60020-89: Arg-Pro-Arg-Nle-Glu(bAla-5-aminoethylsulfonamide isoquinoline)-Dab-Phe (RPR[Nle]E([βAla-X1])[Dab]F)” the “PKB-kinase (spa) Assay 1, % inhibition” value was 8% and the “PKB-kinase (spa) Assay 2, % inhibition” value was 48%.
`C[C@@H](O)[C@H](NC(=O)[C@H](CCCNC(=N)N)NC(=O)[C@@H]1CCCN1C(=O)[C@@H](N)CCCNC(=N)N)C(=O)N[C@@H](CO)C(=O)N[C@@H](CCC(=O)NCCNS(=O)(=O)c1cccc2cnccc12)C(=O)N[C@@H](Cc1ccccc1)C(N)=O` [compound 6014] (H-RPRTSE([Ethylenediamine-Isoquinoline5sulfonyl])F-NH2) showed an IC50 [2] of 25 µM.
With “60020-75: Arg-Pro-Arg-Orn-Glu(bAla-5-aminoethylsulfonamide isoquinoline)-Orn-Phe (RPR[Orn]E([βAla-X1])[Orn]F)” the “PKB-kinase (spa) Assay 1, % inhibition” value was 23% and the “PKB-kinase (spa) Assay 2, % inhibition” value was 35%.
With “60020-27: Arg-Pro-Arg-Nle-Glu(5-aminoethylsulfonamide isoquinoline)-Orn-Phe (RPR[Nle]E(X1)[Orn]F)” the “PKB-kinase (spa) Assay 1, % inhibition” value was 63% and the “PKB-kinase (spa) Assay 2, % inhibition” value was 25%.
“60020-39: Arg-Pro-Arg-Dap-Glu(Gly-5-aminoethylsulfonamide isoquinoline)-Nva-Phe (RPR[Dap]E([Gly-X1])[Nva]F)” was tested, and the “PKB-kinase (spa) Assay 1, % inhibition” value was 17% and the “PKB-kinase (spa) Assay 2, % inhibition” value was 16%.
In the case of “60020-12: Arg-Pro-Arg-Orn-Glu(5-aminoethylsulfonamide isoquinoline)-Orn-Hol (RPR[Orn]E(X1)[Orn][hLeu])”, the “PKB-kinase (spa) Assay 1, % inhibition” value is reported as 23% and the “PKB-kinase (spa) Assay 2, % inhibition” value is reported as 3%.
In the case of “60020-6: Arg-Pro-Arg-Dap-Glu(5-aminoethylsulfonamide isoquinoline)-Ala-Hol (RPR[Dap]E(X1)A[hLeu])”, the “PKB-kinase (spa) Assay 1, % inhibition” value is reported as 32% and the “PKB-kinase (spa) Assay 2, % inhibition” value is reported as 14%.
In the case of “60020-8: Arg-Pro-Arg-Dap-Glu(5-aminoethylsulfonamide isoquinoline)-Nva-Hol (RPR[Dap]E(X1)[Nva][hLeu])”, the “PKB-kinase (spa) Assay 1, % inhibition” value is reported as 18% and the “PKB-kinase (spa) Assay 2, % inhibition” value is reported as 0%.
“60020-70: Arg-Pro-Arg-Dap-Glu(bAla-5-aminoethylsulfonamide isoquinoline)-Ala-Hol (RPR[Dap]E([βAla-X1])A[hLeu])” was tested, and the “PKB-kinase (spa) Assay 1, % inhibition” value was 57% and the “PKB-kinase (spa) Assay 2, % inhibition” value was 68%.
With “60020-83: Arg-Pro-Arg-Abu-Glu(bAla-5-aminoethylsulfonamide isoquinoline)-Orn-Phe (RPR[Abu]E([βAla-X1])[Orn]F)” the “PKB-kinase (spa) Assay 1, % inhibition” value was −21% and the “PKB-kinase (spa) Assay 2, % inhibition” value was 60%.
For “60020-69: Arg-Pro-Arg-Dap-Glu(bAla-5-aminoethylsulfonamide isoquinoline)-Ala-Phe (RPR[Dap]E([βAla-X1])AF)”, the “PKB-kinase (spa) Assay 1, % inhibition” value was 36% and the “PKB-kinase (spa) Assay 2, % inhibition” value was 57%.
“60020-13: Arg-Pro-Arg-Orn-Glu(5-aminoethylsulfonamide isoquinoline)-Ala-Phe (RPR[Orn]E(X1)AF)” was tested, and the “PKB-kinase (spa) Assay 1, % inhibition” value was 36% and the “PKB-kinase (spa) Assay 2, % inhibition” value was 29%.
For “60020-16: Arg-Pro-Arg-Orn-Glu(5-aminoethylsulfonamide isoquinoline)-Nva-Hol (RPR[Orn]E(X1)[Nva][hLeu])”, the “PKB-kinase (spa) Assay 1, % inhibition” value was 5% and the “PKB-kinase (spa) Assay 2, % inhibition” value was 37%.
For “RPRRSSF-NH2 (C-terminus assumed) [AR 60003-53, Arg-Pro-Arg-Arg-Ser-Ser-Phe]”, the IC50 [1] was 3 µM.
In the case of “60020-29: Arg-Pro-Arg-Nle-Glu(5-aminoethylsulfonamide isoquinoline)-Ala-Phe (RPR[Nle]E(X1)AF)”, the “PKB-kinase (spa) Assay 1, % inhibition” value is reported as 19% and the “PKB-kinase (spa) Assay 2, % inhibition” value is reported as 39%.
“RPRTSDF [TY 60002-18, Arg-Pro-Arg-Thr-Ser-Asp-Phe]” was tested, and the “Activity PKB” value (Table 3, linear 7-mer peptides) was “Not active”.
Compound “RPRMSSF-NH2 (C-terminus assumed) [AR 60003-50, Arg-Pro-Arg-Met-Ser-Ser-Phe]” has an IC50 [1] of 2.5 µM.
